Measurements reported in US12065505B2, “Antibodies and antigen binding peptides for factor XIa inhibitors and uses thereof” (Bristol-Myers Squibb Company, priority 2021, dated 2024).
Numbering of substitutions follows the chain as printed. Blank lines part the entries; values can stand above or below the molecule they belong to.

Experiments:
[1] = Competitive TR-FRET assay, mAbs (T0 and T24); assay type: binding; settings: 37° C.; difference between T0 and T24 IC50s; IgG1f mAb format
Description: A competitive TR-FRET (time-resolved fluorescence resonance energy transfer) assay was developed to rank-order the dissociation of α-Compound A mAbs from Compound A as equilibrium is reached at 37° C. The assay buffer was HBS-N (10 mM HEPES, 150 mM NaCl, pH 7.4; GE Healthcare), 0.1% (w/v) BSA (bovine serum albumin; Sigma), 2% DMSO (dimethyl sulfoxide; Sigma). All reagents were prepared in assay buffer and dispensed in equal volumes into white 384 microplates with final volume of 20 μl per well at the following final concentrations: 4 nM COMPOUND 5, the biotinylated analog of COMPOUND 2, a 100 0.1 nM 7-pt titration of human α-Compound A antibodies, 0.1 nM europium-labeled α-mouse IgG (LANCE Eu-W1024; PerkinElmer), 5 nM streptavidin-D2 (Cisbio), and 4 nM mAb 26D5 VH_A10G_Y33A_S53P_M89V_G95A; VK_W32N_H38Q (P1-075621, the second-round optimization parent 26D5-295-B08 formatted with mouse IgG Fc). COMPOUND 5 and α-Compound A antibody titrations were added first to the microplate, and were subjected to an initial incubation at 37° C., 1000 rpm, for one hour to facilitate antibody binding to the compound. After the initial incubation period, the europium α-mouse IgG, streptavidin-D2, and 26D5-mouse IgG (P1-075621) were added sequentially, then the plate was returned to 37° C., 1000 rpm incubation. Microplates were read using a Perkin Elmer EnVision plate reader, and the measured FRET signal was defined as [665 nm]/[620 nm]*10,000. Microplates were read at 30 minutes (T0) and after 24 hour (T24) intervals. […]

[2] = Thermal stability by Differential Scanning Calorimetry; assay type: physicochemical; settings: DSC; Fab 1 mg/ml
Description: Thermal stability analysis was performed with UNchained Labs UNcle™/Tagg analysis with Fabs at a concentration of 20 uM with or without Compound A at a concentration of 50 uM (or control compound). Capillaries were scanned from 25 to 90° C. at 0.5° C./min. In addition, select Fabs were also analyzed by Differential Scanning calorimetry analysis using the Malvern MicroCal VP-Capillary DSC. Samples were buffer matched and loaded with Fabs at a concentration of 10 uM with or without Compound A at a concentration of 15 uM (or control compound). Scan temperature range was 15-110° C. at a rate of 60° C./Hr (Filter period: 16 sec, Gain: None). Sample analysis was using software provided by the manufacturer for both the UNcle and the Malvern Capillary DSC. FIG. 15 and Table 14 below show representative DSC results.

[3] = Kinetic Exclusion Assay (KinExA) solution affinity; assay type: binding; settings: for KinExA Ka: complex association rate, 200 pM Fab and 400 pM Compound A; for Kd: solution affinity for Compound A, Fab 100, 200, 300 pM, equilibrated 24-72 hours
Description: The solution affinity of the antibody Fab fragments disclosed herein for Compound A was measured using a Kinetic Exclusion Assay (KinExA). […] The relative unbound concentration of 26D5 affinity matured antibody Fab fragment was measured by capture on a streptavidin coated bead with COMPOUND 5 followed by detection with a fluorescently labeled antibody that recognizes the human IgG Fab. Kinetic analysis to determine the complex association rate was measured with the same assay format except that a single tube of the mixture was prepared (200 pM Fab and 400 pM Compound A) and time points were removed immediately (no equilibration). Two Fabs, 26D5-75229-343-A10-Fab-SHORT and 26D5-75616-348-F10-Fab-SHORT, were identified as the top two Fabs by DSC thermal stability and KinExA analysis. Antibody Fab fragment 26D5-75616-348-F10-Fab-SHORT (SEQ ID NO: 106 and SEQ ID NO: 164; see Table 3) was selected for X-ray crystallography as described below and in vivo studies as described in Example 12.

[4] = SPR (Biacore) on chip coated with BSA conjugated to COMPOUND 2; assay type: binding; settings: 25° C., Fab over COMPOUND 2-BSA surface
Description: The binding of the first round affinity matured antibody Fab fragments to conjugated versions of Compound A was examined by SPR (Biacore™) using a CM5 S-series sensor chip (Cytiva, Cat. No. 29149603) coated with BSA previously conjugated to COMPOUND 2, COMPOUND 3 or COMPOUND 1. The immobilization level was 150-250 RUs. The running buffer was 1×PBS (phosphate buffered saline, pH 7.4) with 0.05% Tween 20. […] The antibody Fab fragment at a concentration of between 200-0.8 nM was injected over the BSA-compound coated surface for 2 minutes at a flow rate of 30 uL/min. The antibody Fab fragment was then allowed to dissociate for 15 minutes. The chip surface was regenerated after each cycle with a 1 minute pulse of 10 mM Glycine, pH 2, and a 1 minute pulse of 50 mM NaOH. All experiments were run on the same equipment and analyzed with the same software as described before. Apparent affinities were determined for rank ordering only since dissociation rates were too slow to be measured by Biacore. Comparative experiments with selected mAbs were also conducted in a similar fashion (see FIG. 11).

[5] = SPR (Biacore) Protein A mAb capture, Compound A injected; settings: 37° C., binding to Compound A, for rank ordering only
In short: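 Parent and affinity-matured IgG1f mAbs were captured at 2 ug/mL on a high-density protein A chip. Compound A was injected at 100–3 nM for 2 min, with at least 450 s dissociation, at 37 °C in PBS pH 7.4 with 0.05% Tween 20 and 2% DMSO. Apparent affinities were used for rank ordering only, because off-rates were too slow to measure.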

B1: 26D5-GVR-Q-FT-Fab-LONG mAb: IgG1f mAb called P1-072226, S31 in place of R31, i.e. 26D5-GV-Q (VH SEQ ID NO: 82, VL SEQ ID NO: 99) (antibody, V domains shown)
VH: EVQLVESGGGLIQPGGSLRLSCAASGFTVSSNYMSWVRQAPGKGLEWVSFIYSGGRTYYADSVKGRFTISRDNSKNTLYLQMNSLRAEDTAVYYCARGGFGGGDYWGQGTLVTVSS
VL: DIQMTQSPSSVSASVGDRVTITCRASQGISSWLAWYQQKPGKAPKLLIYAASSLQSGVPSRFSGSGSGTDFTLTISSLQPEDFATYYCQQANSFPLTFGGGTKVEIK
T0-T24 IC50 shift (Δ) [1]: 63 nM

Kd [3]: 0.019 nM
B2: 26D5-75202-343-A09-Fab-SHORT: antibody Fab fragment; VH SEQ ID NO: 54, VL SEQ ID NO: 86; sequence in Table 3 (antibody, V domains shown)
VH: B1 VH with Y33A, F50Y, S53P, G98A
VL: B1 VL with S30Y, W32N, S93E
Tm1 (° C.) [2]: 75.3 °C | KinExA Ka [3]: 150000 M⁻¹ s⁻¹

Kd [3]: 0.01 nM
B3: 26D5-75203-343-B09-Fab-SHORT: antibody Fab fragment; VH SEQ ID NO: 54, VL SEQ ID NO: 87; sequence in Table 3 (antibody, V domains shown)
VH: B1 VH with Y33A, F50Y, S53P, G98A
VL: B1 VL with W32N, S53T, S93E
Tm1 (° C.) [2]: 76.6 °C | KinExA Ka [3]: 14000 M⁻¹ s⁻¹

B4: 26D5-75768-348-A10-Fab-SHORT: antibody Fab fragment; VH SEQ ID NO: 56, VL SEQ ID NO: 89; sequence in Table 3 (antibody, V domains shown)
VH: B1 VH with Y33A, M34V, W36I, S49A, F50Y, S53P, A96T, R97I
VL: B1 VL with W32N, L33N, A34Q, A50Y, A91G, S93E
Tm1 (° C.) [2]: 66.3 °C | Tm2 (° C.) [2]: 74.1 °C

koff, dissociation rate constant ([4]; apparent): 0.00087 s⁻¹ | Kd ([4]; apparent affinity): 2.1 nM
B5: 9C8-VGSKE-Fab-LONG: antibody Fab fragment; VH SEQ ID NO: 78, VL SEQ ID NO: 96; sequence in Table 3 (antibody, V domains shown)
VH: QVQLQESGPGLVKPSETLSLTCAVSGYSISSGYYWGWIRQPPGKGLEWIGSIYHSGNTYYSPSLQSRVTISVDTSKNQFSLKLSSVTAADTAVYYCARGGDFDILTGYYKGWFEPWGQGTLVTVSS
VL: B1 VL with D1A, M4L, V11L, W32A, A50D, Q55E, A91F, F94Y, L96Q, G100Q
Ka ([4]; apparent): 400000 M⁻¹ s⁻¹

Kd [3]: 0.015 nM
B6: 26D5-75214-343-F06-Fab-SHORT: antibody Fab fragment; VH SEQ ID NO: 53, VL SEQ ID NO: 85; sequence in Table 3 (antibody, V domains shown)
VH: B1 VH with Y33A, S53P, G98A, G103P
VL: B1 VL with W32N, S93E
Tm1 (° C.) [2]: 75.5 °C | KinExA Ka [3]: 600000 M⁻¹ s⁻¹

Kd ([5]; apparent affinity, listed as 26D5-75747-0348-D07-mAb, read-out: KD): < 0.03 nM | Kd ([5]; apparent affinity, read-out: KD): < 0.02 nM | Kd ([5]; apparent): <5e-05 s⁻¹
B7: 26D5-75747-348-D07-mAb: human IgG1f/kappa mAb; VH SEQ ID NO: 57, VL SEQ ID NO: 90 (antibody, V domains shown)
VH: B1 VH with Y33A, M34F, F50Y, R97A, G98A
VL: B1 VL with W32Q, L33V, A50Y, A91G, S93E
T0-T24 IC50 shift (Δ) [1]: 4.3 nM | Ka ([5]; apparent): 2e+06 M⁻¹ s⁻¹

B8: 26D5-75229-343-A10-Fab-SHORT: antibody Fab fragment; VH SEQ ID NO: 52, VL SEQ ID NO: 84; sequence in Table 3 (antibody, V domains shown)
VH: B1 VH with Y33A, F50Y, S53P, G98A, G103P
VL: B1 VL with W32N, S93Q
Tm1 (° C.) [2]: 74.9 °C | KinExA Ka [3]: 50000 M⁻¹ s⁻¹

B9: 26D5-295-C08-Fab-SHORT: antibody Fab fragment; VH SEQ ID NO: 62, VL SEQ ID NO: 88; sequence in Table 3 (antibody, V domains shown)
VH: B1 VH with T28Q, Y33A, S53P
VL: B1 VL with W32N
Tm1 (° C.) [2]: 75.3 °C

B10: P1-072963: IgG1f mAb format of first round optimization progeny 26D5-295-B08; VH SEQ ID NO: 60, VL SEQ ID NO: 88 (antibody, V domains shown)
VH: B1 VH with Y33A, S53P, G98A
VL: B1 VL with W32N
T0-T24 IC50 shift (Δ) [1]: 20.5 nM
